According to PMC7988105:
Where a chain is given by its changes, count along the chain named. Names and notes keep the numbering of the source.

B1: mouse NLGN3 ECD (residues 35–684) with C-terminal His6 tag, Q8BYM5 H279A; S280A; E281A (protein)
chain: QAPAPTVNTHFGKLRGARVPLPSEILGPVDQYLGVPYAAPPIGEKRFLPPEPPPSWSGIRNATHFPPVCPQNIHTAVPEVMLPVWFTANLDIVATYIQEPNEDCLYLNVYVPTEDGSGAKKQGEDLADNDGDEDEDIRDSGAKPVMVYIHGGSYMEGTGNMIDGSVLASYGNVIVITLNYRVGVLGFLSTGDQAAKGNYGLLDQIQALRWVSENIAFFGGDPRRITVFGSGIGASCVSLLTLSHAAAGLFQRAIIQSGSALSSWAVNYQPVKYTSLLADKVGCNVLDTVDMVDCLRQKSAKELVEQDIQPARYHVAFGPVIDGDVIPDDPEILMEQGEFLNYDIMLGVNQGEGLKFVEGVVDPEDGVSGTDFDYSVSNFVDNLYGYPEGKDTLRETIKFMYTDWADRDNPETRRKTLVALFTDHQWVEPSVVTADLHARYGSPTYFYAFYHHCQSLMKPAWSDAAHGDEVPYVFGVPMVGPTDLFPCNFSKNDVMLSAVVMTYWTNFAKTGDPNKPVPQDTKFIHTKANRFEEVAWSKYNPRDQLYLHIGLKPRVRDHYRATKVAFWKHLVPHLYNLHDMFHYTSTTTKVPPPDTTHSSHITRRPNGKTWSTKRPAISPAYSNENAPGSWNGDQDAGPLLVENPRDYSTE
B2: mouse NLGN3 ECD (residues 35–684) with C-terminal His6 tag, Q8BYM5 M614I; F615S (protein)
chain: B1 chain with A245H, A246S, A247E, M580I, F581S
B3: NLGN3 ECD R448C mutant (R/C; equivalent to human R451C) with His6 tag, Q8BYM5 35-684 (domain or fragment)
chain: B1 chain with A245H, A246S, A247E, R414C
B4: mouse NLGN3 ECD (residues 35–684) with C-terminal His6 tag, Q8BYM5 D362A; E372A; N375A (protein)
chain: B1 chain with A245H, A246S, A247E, D328A, E338A, N341A
B5: mouse NLGN3 ECD (residues 35–684) with C-terminal His6 tag, Q8BYM5 M614A; F615A (protein)
chain: B1 chain with A245H, A246S, A247E, M580A, F581A

Tests used:
[1] = target: NRXN1β (lacking SS4) Fc fusion used as bait in the pull-down; assay: pull-down; details: chain shown with the change;; parent: est. 100; read off a plot
[2] = target: PTPδA3B– extracellular domain fused to Fc (mouse); assay: pull-down; soluble recombinant proteins mixed at 0.03 μM each in HBSS, 2 mM CaCl2, 1 mM MgCl2, 3 h, then Protein A-Sepharose 1 h, room temperature; NLGN3-His6 detected with anti-His
Chain of PTPδA3B– extracellular domain fused to Fc (mouse) (Q64487 other isoform, or with tags, fused parts or gaps mutant): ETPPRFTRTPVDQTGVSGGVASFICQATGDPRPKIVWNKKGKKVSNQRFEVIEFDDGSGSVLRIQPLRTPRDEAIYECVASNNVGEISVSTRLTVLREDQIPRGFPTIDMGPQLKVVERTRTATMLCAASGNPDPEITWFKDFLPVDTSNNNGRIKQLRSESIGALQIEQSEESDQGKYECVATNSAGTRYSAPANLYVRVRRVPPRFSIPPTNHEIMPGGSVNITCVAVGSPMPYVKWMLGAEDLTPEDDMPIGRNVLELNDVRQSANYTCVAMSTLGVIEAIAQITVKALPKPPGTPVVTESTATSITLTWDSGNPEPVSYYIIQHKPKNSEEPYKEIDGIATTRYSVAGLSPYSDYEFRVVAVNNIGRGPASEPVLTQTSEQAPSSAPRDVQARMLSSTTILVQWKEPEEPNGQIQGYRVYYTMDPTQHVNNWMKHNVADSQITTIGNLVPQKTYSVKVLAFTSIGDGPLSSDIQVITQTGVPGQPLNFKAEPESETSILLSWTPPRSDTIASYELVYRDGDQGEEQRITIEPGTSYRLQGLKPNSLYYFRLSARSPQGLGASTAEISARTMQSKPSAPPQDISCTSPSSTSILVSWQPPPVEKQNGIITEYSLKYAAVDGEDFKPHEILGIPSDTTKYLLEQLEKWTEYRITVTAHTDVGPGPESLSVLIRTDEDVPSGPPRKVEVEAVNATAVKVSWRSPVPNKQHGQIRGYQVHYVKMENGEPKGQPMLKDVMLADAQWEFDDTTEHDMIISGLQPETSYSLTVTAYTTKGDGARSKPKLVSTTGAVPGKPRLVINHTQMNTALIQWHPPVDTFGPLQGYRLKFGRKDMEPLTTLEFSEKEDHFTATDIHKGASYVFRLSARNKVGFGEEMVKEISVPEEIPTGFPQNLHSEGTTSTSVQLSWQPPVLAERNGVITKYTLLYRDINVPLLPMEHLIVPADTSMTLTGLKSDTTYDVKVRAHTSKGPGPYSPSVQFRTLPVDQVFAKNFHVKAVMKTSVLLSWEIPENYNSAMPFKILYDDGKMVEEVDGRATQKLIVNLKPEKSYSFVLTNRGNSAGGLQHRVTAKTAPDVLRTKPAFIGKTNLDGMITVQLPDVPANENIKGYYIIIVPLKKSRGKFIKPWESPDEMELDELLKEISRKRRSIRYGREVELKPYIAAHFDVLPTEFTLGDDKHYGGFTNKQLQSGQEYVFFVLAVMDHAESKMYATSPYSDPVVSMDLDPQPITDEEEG

Chain of NRXN1β (lacking SS4) Fc fusion used as bait in the pull-down (chain, as listed by the source): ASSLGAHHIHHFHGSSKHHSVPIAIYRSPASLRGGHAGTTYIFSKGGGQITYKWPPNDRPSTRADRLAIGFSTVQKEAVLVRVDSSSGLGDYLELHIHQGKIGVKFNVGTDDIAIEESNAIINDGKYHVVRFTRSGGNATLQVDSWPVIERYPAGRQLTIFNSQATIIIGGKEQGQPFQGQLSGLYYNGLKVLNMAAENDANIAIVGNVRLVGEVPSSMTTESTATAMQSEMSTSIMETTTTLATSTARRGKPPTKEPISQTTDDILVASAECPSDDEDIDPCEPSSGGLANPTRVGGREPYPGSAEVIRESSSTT

| Binder | percent of parent [1] | pulldown efficiency (% of wild-type) (% of wild-type) [2] |
| --- | --- | --- |
| B1 | 22 % WT |  |
| B2 | 115 % WT |  |
| B3 |  | 20 |
| B4 | 18 % WT |  |
| B5 | 104 % WT |  |
